Publication PMC13132546 (2026)

Tests used:
[1] = target: T1, DYRK1A (recombinant, N-terminally biotinylated) (UniProt Q13627 1-763, biotin on the N-terminus (sortase labelling with a synthetic biotin-LPETGG peptide onto the N-terminal glycine left after TEV cleavage)); experiment: BLI
[2] = target: T1, DYRK1A (recombinant, N-terminally …); experiment: BLI; steady-state response analysis

koff [1]: 0.04 s⁻¹
Kd [2]: 3.3 µM
B1: FAM53C (recombinant) (natural protein)
chain: MITLITEQLQKQTLDELKCTRFSISLPLPDHADISNCGNSFQLVSEGASWRGLPHCSCAEFQDSLNFSYHPSGLSLHLRPPSRGNSPKEQPFSQVLRPEPPDPEKLPVPPAPPSKRHCRSLSVPVDLSRWQPVWRPAPSKLWTPIKHRGSGGGGGPQVPHQSPPKRVSSLRFLQAPSASSQCAPAHRPYSPPFFSLALAQDSSRPCAASPQSGSWESDAESLSPCPPQRRFSLSPSLGPQASRFLPSARSSPASSPELPWRPRGLRNLPRSRSQPCDLDARKTGVKRRHEEDPRRLRPSLDFDKMNQKPYSGGLCLQETAREGSSISPPWFMACSPPPLSASCSPTGGSSQVLSESEEEEEGAVRWGRQALSKRTLCQRDFGDLDLNLIEEN
